Target: FGFR3 (UniProt P22607)
Experiment: phosphorylation enrichment, bacterial display (enrichment ratio); higher = better substrate or ligand; peptides without Tyr show the background
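Note: 11-residue human phosphosite peptides and single-mutation variants displayed on the E. coli surface, counted by deep sequencing, each peptide's frequency after selection divided by its frequency in the unselected input library; frequency after pTyr selection over input frequency; kinase dosed for 20-30% of maximal phosphorylation in three min.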

FGFR3, sequence (P22607 whole entry, looked up): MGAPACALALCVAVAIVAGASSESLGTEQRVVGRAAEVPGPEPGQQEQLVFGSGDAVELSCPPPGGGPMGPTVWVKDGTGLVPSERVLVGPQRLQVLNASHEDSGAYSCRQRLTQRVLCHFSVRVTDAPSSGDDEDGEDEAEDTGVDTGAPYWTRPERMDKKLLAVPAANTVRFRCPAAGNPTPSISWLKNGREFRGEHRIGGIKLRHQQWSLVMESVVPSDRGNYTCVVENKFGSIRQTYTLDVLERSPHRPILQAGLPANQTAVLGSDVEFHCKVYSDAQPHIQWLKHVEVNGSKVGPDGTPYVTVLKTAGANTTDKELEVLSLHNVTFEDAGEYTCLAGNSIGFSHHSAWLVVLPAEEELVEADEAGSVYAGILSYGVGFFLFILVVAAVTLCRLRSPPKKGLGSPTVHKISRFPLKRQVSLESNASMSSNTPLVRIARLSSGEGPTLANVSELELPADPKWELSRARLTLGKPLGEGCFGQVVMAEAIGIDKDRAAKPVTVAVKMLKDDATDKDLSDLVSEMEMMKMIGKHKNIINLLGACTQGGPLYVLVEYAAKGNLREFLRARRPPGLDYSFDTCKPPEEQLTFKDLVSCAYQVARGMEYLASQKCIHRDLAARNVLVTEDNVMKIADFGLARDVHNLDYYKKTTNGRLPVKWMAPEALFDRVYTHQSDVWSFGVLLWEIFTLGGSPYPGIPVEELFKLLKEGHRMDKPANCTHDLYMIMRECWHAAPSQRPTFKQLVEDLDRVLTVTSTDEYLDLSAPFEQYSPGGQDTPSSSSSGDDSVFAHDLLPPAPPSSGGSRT

Compared with YEDALYTVLHR [UNC13D_Y61], PQGVRYTFTID [DCX_Y103_I104T_YF] is lower in phosphorylation enrichment: 3.1 for the first, 1.36 for the second.

Going from IFLADYRIMEG [ALOX12B_Y318_YF] to RGDCMYAPLLG [AR_Y269], the phosphorylation enrichment rises from 0.787 to 1.83.

Going from SGIFQYNIAKF [FOXL2_Y83_I84N_YF] to ILLAGCLVMVI [SLC28A3_Y113_Y113C], the phosphorylation enrichment rises from 0.691 to 0.829.

Going from HGDSAYHSQRH [ERBB3_Y1132_R1127H] to KILGRYYETGS [PAX2_Y72], the phosphorylation enrichment rises from 0.425 to 0.523.

First: APGNAYGDAGF [SYP_Y250_D248N_YF]
Second: PKEQKYSFLQD [GH1_Y68_N73D]
The phosphorylation enrichment of the first is lower: 0.412 for the first, 0.532 for the second.

First: AMIADYMFWLG [SPATA16_Y290]
Second: RASDFYSQQMA [GBP6_Y334_A331S_YF]
The phosphorylation enrichment of the first is higher: 10.8 for the first, 0.605 for the second.

Compared with RESSGYLRLAF [MEP1A_Y481], FPILNYKDIRK [CFAP221_Y798_M795I] is lower in phosphorylation enrichment: 1.25 for the first, 0.464 for the second.

Going from SSSGGYGGGYG [KRT19_Y61_A60G] to VTSLKYSTSPF [BRIP1_Y916_YF], the phosphorylation enrichment rises from 0.335 to 0.689.

Compared with LLREWYLPDPY [SIX3_Y225_Q227P], WQLEIYRASRP [ERCC4_Y594_R589W] is lower in phosphorylation enrichment: 0.816 for the first, 0.702 for the second.

First: DRLASYPDKVR [KRT14_Y129_L130P]
Second: MSRDIYSTDYY [NTRK1_Y676]
The phosphorylation enrichment of the first is lower: 0.391 for the first, 3.6 for the second.

First: VLNKGYRMVVN [HINT1_Y94_G89V]
Second: GKSHIYFWTLE [EML2_Y230]
The phosphorylation enrichment of the first is lower: 0.396 for the first, 1.07 for the second.

Going from KIVATYRLCSE [DNAH3_Y1586] to GRRGQYVMPSE [TTC7A_Y396_L399P], the phosphorylation enrichment falls from 0.664 to 0.394.

Compared with KTTGGYAGGLS [KRT8_Y419_S417G], NHYKIYNLYAE [PTEN_Y68_C71Y] is higher in phosphorylation enrichment: 0.422 for the first, 0.541 for the second.

Going from VEDQYYCVDCY [FHL1_Y208] to DERQPYVHMNG [IGF1R_Y1346_A1347V], the phosphorylation enrichment falls from 10.3 to 0.627.

LVQAEYWHDRI [PPT1_Y185_P189R] was tested, and the phosphorylation enrichment was 2.08.

Test system: Fer (mouse)
Experiment: as above

Going from YEDALYTVLHR [UNC13D_Y61] to PQGVRYTFTID [DCX_Y103_I104T_YF], the phosphorylation enrichment falls from 12.9 to 0.796.

First: IFLADYRIMEG [ALOX12B_Y318_YF]
Second: RGDCMYAPLLG [AR_Y269]
The phosphorylation enrichment of the first is lower: 0.453 for the first, 4.16 for the second.

Compared with SGIFQYNIAKF [FOXL2_Y83_I84N_YF], ILLAGCLVMVI [SLC28A3_Y113_Y113C] is higher in phosphorylation enrichment: 0.48 for the first, 0.493 for the second.

Compared with HGDSAYHSQRH [ERBB3_Y1132_R1127H], KILGRYYETGS [PAX2_Y72] is higher in phosphorylation enrichment: 0.276 for the first, 0.418 for the second.

Compared with APGNAYGDAGF [SYP_Y250_D248N_YF], PKEQKYSFLQD [GH1_Y68_N73D] is higher in phosphorylation enrichment: 0.369 for the first, 0.435 for the second.

Going from AMIADYMFWLG [SPATA16_Y290] to RASDFYSQQMA [GBP6_Y334_A331S_YF], the phosphorylation enrichment falls from 2.01 to 0.37.

First: RESSGYLRLAF [MEP1A_Y481]
Second: FPILNYKDIRK [CFAP221_Y798_M795I]
The phosphorylation enrichment of the first is higher: 0.93 for the first, 0.449 for the second.

Compared with SSSGGYGGGYG [KRT19_Y61_A60G], VTSLKYSTSPF [BRIP1_Y916_YF] is higher in phosphorylation enrichment: 0.333 for the first, 0.408 for the second.

Going from LLREWYLPDPY [SIX3_Y225_Q227P] to WQLEIYRASRP [ERCC4_Y594_R589W], the phosphorylation enrichment rises from 0.409 to 0.471.

Compared with DRLASYPDKVR [KRT14_Y129_L130P], MSRDIYSTDYY [NTRK1_Y676] is higher in phosphorylation enrichment: 0.373 for the first, 1.5 for the second.

Going from VLNKGYRMVVN [HINT1_Y94_G89V] to GKSHIYFWTLE [EML2_Y230], the phosphorylation enrichment rises from 0.311 to 0.496.

Compared with KIVATYRLCSE [DNAH3_Y1586], GRRGQYVMPSE [TTC7A_Y396_L399P] is lower in phosphorylation enrichment: 0.487 for the first, 0.39 for the second.

First: KTTGGYAGGLS [KRT8_Y419_S417G]
Second: NHYKIYNLYAE [PTEN_Y68_C71Y]
The phosphorylation enrichment of the first is lower: 0.419 for the first, 0.481 for the second.

Going from VEDQYYCVDCY [FHL1_Y208] to DERQPYVHMNG [IGF1R_Y1346_A1347V], the phosphorylation enrichment falls from 1.11 to 0.446.

For LVQAEYWHDRI [PPT1_Y185_P189R], the phosphorylation enrichment was 0.706.

Target: Fes (UniProt P07332)
Sequence (P07332 whole entry, looked up): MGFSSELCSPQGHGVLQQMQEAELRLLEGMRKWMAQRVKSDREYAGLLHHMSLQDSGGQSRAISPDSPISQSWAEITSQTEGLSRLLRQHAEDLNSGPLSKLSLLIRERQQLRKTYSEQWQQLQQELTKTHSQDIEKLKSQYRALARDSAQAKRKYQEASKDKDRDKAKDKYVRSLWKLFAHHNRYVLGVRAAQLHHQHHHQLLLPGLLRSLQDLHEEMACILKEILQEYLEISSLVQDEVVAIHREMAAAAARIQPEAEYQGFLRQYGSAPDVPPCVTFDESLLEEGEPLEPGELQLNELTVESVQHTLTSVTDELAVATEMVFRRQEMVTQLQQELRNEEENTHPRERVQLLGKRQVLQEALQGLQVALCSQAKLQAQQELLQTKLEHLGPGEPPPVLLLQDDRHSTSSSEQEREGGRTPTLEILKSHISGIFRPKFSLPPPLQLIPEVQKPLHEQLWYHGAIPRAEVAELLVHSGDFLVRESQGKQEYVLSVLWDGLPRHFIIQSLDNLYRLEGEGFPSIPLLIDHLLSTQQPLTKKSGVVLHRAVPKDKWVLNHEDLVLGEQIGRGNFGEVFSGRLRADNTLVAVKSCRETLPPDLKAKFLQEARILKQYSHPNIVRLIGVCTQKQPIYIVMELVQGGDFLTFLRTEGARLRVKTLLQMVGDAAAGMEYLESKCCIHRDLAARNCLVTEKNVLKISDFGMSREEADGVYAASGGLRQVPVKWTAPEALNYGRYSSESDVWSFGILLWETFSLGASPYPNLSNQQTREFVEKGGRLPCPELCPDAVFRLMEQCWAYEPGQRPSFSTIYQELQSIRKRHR
Experiment: as above

Going from YEDALYTVLHR [UNC13D_Y61] to PQGVRYTFTID [DCX_Y103_I104T_YF], the phosphorylation enrichment falls from 2.06 to 1.66.

Compared with IFLADYRIMEG [ALOX12B_Y318_YF], RGDCMYAPLLG [AR_Y269] is lower in phosphorylation enrichment: 0.984 for the first, 0.885 for the second.

First: SGIFQYNIAKF [FOXL2_Y83_I84N_YF]
Second: ILLAGCLVMVI [SLC28A3_Y113_Y113C]
The phosphorylation enrichment of the first is lower: 1.01 for the first, 1.26 for the second.

Compared with HGDSAYHSQRH [ERBB3_Y1132_R1127H], KILGRYYETGS [PAX2_Y72] is lower in phosphorylation enrichment: 1.22 for the first, 0.758 for the second.

Going from APGNAYGDAGF [SYP_Y250_D248N_YF] to PKEQKYSFLQD [GH1_Y68_N73D], the phosphorylation enrichment rises from 0.504 to 1.16.

Compared with AMIADYMFWLG [SPATA16_Y290], RASDFYSQQMA [GBP6_Y334_A331S_YF] is lower in phosphorylation enrichment: 1.31 for the first, 0.682 for the second.

First: RESSGYLRLAF [MEP1A_Y481]
Second: FPILNYKDIRK [CFAP221_Y798_M795I]
The phosphorylation enrichment of the first is higher: 1.8 for the first, 0.666 for the second.

Going from SSSGGYGGGYG [KRT19_Y61_A60G] to VTSLKYSTSPF [BRIP1_Y916_YF], the phosphorylation enrichment rises from 0.534 to 0.695.

Going from LLREWYLPDPY [SIX3_Y225_Q227P] to WQLEIYRASRP [ERCC4_Y594_R589W], the phosphorylation enrichment rises from 1.14 to 1.22.

Compared with DRLASYPDKVR [KRT14_Y129_L130P], MSRDIYSTDYY [NTRK1_Y676] is higher in phosphorylation enrichment: 0.516 for the first, 0.933 for the second.

Compared with VLNKGYRMVVN [HINT1_Y94_G89V], GKSHIYFWTLE [EML2_Y230] is higher in phosphorylation enrichment: 0.539 for the first, 1.3 for the second.

First: KIVATYRLCSE [DNAH3_Y1586]
Second: GRRGQYVMPSE [TTC7A_Y396_L399P]
The phosphorylation enrichment of the first is higher: 1.28 for the first, 0.557 for the second.

Compared with KTTGGYAGGLS [KRT8_Y419_S417G], NHYKIYNLYAE [PTEN_Y68_C71Y] is higher in phosphorylation enrichment: 0.592 for the first, 0.723 for the second.

First: VEDQYYCVDCY [FHL1_Y208]
Second: DERQPYVHMNG [IGF1R_Y1346_A1347V]
The phosphorylation enrichment of the first is higher: 1.48 for the first, 0.81 for the second.

LVQAEYWHDRI [PPT1_Y185_P189R] gave a phosphorylation enrichment of 1.

Target: Fyn (UniProt P06241)
Sequence (P06241 whole entry, looked up): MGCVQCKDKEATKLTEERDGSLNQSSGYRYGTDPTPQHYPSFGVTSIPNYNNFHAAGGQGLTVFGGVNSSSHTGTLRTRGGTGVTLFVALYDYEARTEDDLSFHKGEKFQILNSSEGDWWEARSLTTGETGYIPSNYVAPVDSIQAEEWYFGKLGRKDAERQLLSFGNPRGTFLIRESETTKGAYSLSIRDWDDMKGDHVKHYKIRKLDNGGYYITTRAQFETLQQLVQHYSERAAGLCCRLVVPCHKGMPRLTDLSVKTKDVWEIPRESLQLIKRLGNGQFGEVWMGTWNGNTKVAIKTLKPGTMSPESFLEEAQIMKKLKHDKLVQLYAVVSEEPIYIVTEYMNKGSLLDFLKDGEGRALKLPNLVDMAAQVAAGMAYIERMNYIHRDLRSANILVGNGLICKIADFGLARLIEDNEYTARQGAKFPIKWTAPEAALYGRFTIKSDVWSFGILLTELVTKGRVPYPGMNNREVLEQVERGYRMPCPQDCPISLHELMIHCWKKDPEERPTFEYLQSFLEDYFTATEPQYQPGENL
Experiment: as above

Going from YEDALYTVLHR [UNC13D_Y61] to PQGVRYTFTID [DCX_Y103_I104T_YF], the phosphorylation enrichment falls from 8.38 to 0.7.

Going from IFLADYRIMEG [ALOX12B_Y318_YF] to RGDCMYAPLLG [AR_Y269], the phosphorylation enrichment rises from 0.408 to 8.2.

Compared with SGIFQYNIAKF [FOXL2_Y83_I84N_YF], ILLAGCLVMVI [SLC28A3_Y113_Y113C] is lower in phosphorylation enrichment: 0.472 for the first, 0.471 for the second.

Going from HGDSAYHSQRH [ERBB3_Y1132_R1127H] to KILGRYYETGS [PAX2_Y72], the phosphorylation enrichment rises from 0.327 to 0.437.

Compared with APGNAYGDAGF [SYP_Y250_D248N_YF], PKEQKYSFLQD [GH1_Y68_N73D] is higher in phosphorylation enrichment: 0.339 for the first, 0.523 for the second.

Going from AMIADYMFWLG [SPATA16_Y290] to RASDFYSQQMA [GBP6_Y334_A331S_YF], the phosphorylation enrichment falls from 0.727 to 0.423.

Compared with RESSGYLRLAF [MEP1A_Y481], FPILNYKDIRK [CFAP221_Y798_M795I] is lower in phosphorylation enrichment: 0.732 for the first, 0.368 for the second.

First: SSSGGYGGGYG [KRT19_Y61_A60G]
Second: VTSLKYSTSPF [BRIP1_Y916_YF]
The phosphorylation enrichment of the first is lower: 0.352 for the first, 0.433 for the second.

Going from LLREWYLPDPY [SIX3_Y225_Q227P] to WQLEIYRASRP [ERCC4_Y594_R589W], the phosphorylation enrichment rises from 0.477 to 0.492.

Going from DRLASYPDKVR [KRT14_Y129_L130P] to MSRDIYSTDYY [NTRK1_Y676], the phosphorylation enrichment rises from 0.371 to 4.75.

Compared with VLNKGYRMVVN [HINT1_Y94_G89V], GKSHIYFWTLE [EML2_Y230] is higher in phosphorylation enrichment: 0.383 for the first, 0.513 for the second.

First: KIVATYRLCSE [DNAH3_Y1586]
Second: GRRGQYVMPSE [TTC7A_Y396_L399P]
The phosphorylation enrichment of the first is higher: 0.463 for the first, 0.415 for the second.

Compared with KTTGGYAGGLS [KRT8_Y419_S417G], NHYKIYNLYAE [PTEN_Y68_C71Y] is higher in phosphorylation enrichment: 0.413 for the first, 2.14 for the second.

Compared with VEDQYYCVDCY [FHL1_Y208], DERQPYVHMNG [IGF1R_Y1346_A1347V] is lower in phosphorylation enrichment: 2.34 for the first, 0.438 for the second.

For LVQAEYWHDRI [PPT1_Y185_P189R], the phosphorylation enrichment was 0.396.

Reference: the supplement of paper PMC10065799, “High-throughput profiling of sequence recognition by tyrosine kinases and SH2 domains using bacterial peptide display” (eLife, 2023)
